Measured values taken from patent US20160040149A1, “Compositions Having Dicamba Decarboxylase Activity and Methods of Use” (priority 2013, published 2016).

Test: DNA shuffling libraries: 14CO2 capturing assay in 384-well format, fold activity of backbone (Megatable 2)
[1] = relative to backbone SEQ ID NO: 509 (DDEC0810)
[2] = relative to backbone SEQ ID NO: 380 (DDEC0301)

B1: 509 (protein)
chain: MAQGKVALEEHFAIPETLQDAAGFVPGDYWKELQHRLLDIQDTRLKEMDKHEIGTMILSLAAPAVQAIPDRRKAIEIARRANDFLAEEVAKRPDRFLAFAALPLQDVDAATEELQRCVNDLGFVGAMVNGFSQEGDGQTPLYYDLPQYRPFWGEVEKLDVPFYLHPRNPLPQDSRIYDGHPWLLGPTWAFAQETAVHALRLMASGLFDEHPRLNIILGHMGEGLPYMMYRIDHRIAWVKAPPDYPAKRRFMDYFLENFHITTSGNFRTQTLIDAILEIGADRILFSTDWPFENIDHAADWFNATSIAEADRVKIGRTNARRLFKLDGR
modifications: Dicamba decarboxylase variant
Fold Activity [1]: 1.0 fold

B2: 516 (protein)
chain: MAQGKVALEEHFAIPETLQDAAGFVPGDYWKELQHRLLDIQDTRLKEMDKHEIGTMILSLAAPAVQAIPDRRKAIEIARRANDFLAEEVAKRPDRFLAFAALPLQDVDAATEELQRCVNDLGFVGAMVNGFSQEGDGQTPLYYDLPQYRPFWGEVEKLDVPFYLHPRNPLPQDARIYDGHPWLLGPTWAFAQETAVHALRLMASGLFDEHPRLNIILGHMGEGLPYMMYRIDHRIAWVKAPPDYPAKRRFMDYFLENFHITTSGNFRTQTLIDAILEIGADRILFSTDWPFENIDHAADWFNATSIAEADRVKIGRTNARRLFKLDGR
modifications: Dicamba decarboxylase variant
Fold Activity [1]: 1.1 fold

B3: 511 (protein)
chain: MAQGKVALEEHFAIPETLQDAAGFVPGDYWKELQHRLLDIQDTRLKEMDKHGIGTMVLSLAAPAVQAIPDRRQAIELARRANDFLAEEVAKRPDRFLAFAALPLQDVDAATEELQRCVNDLGFVGAMVNGFSQEGDGQTPLYYDLPQYRPFWGEVEKLDVPFYLHPRNPLPQDSRIYDGHPWLLGPTWAFAQETAVHALRLMASGLFDEHPRLNIILGHMGEGLPYMMYRIDHRIAWVKAPPDYPAKRRFMDYFLENFHITTSGNFRTQTLIDAILEIGADRILFSTDWPFENIDHAADWFNATSIAEADRVKIGRTNARRLFKLDGR
modifications: Dicamba decarboxylase variant
Fold Activity [1]: 1.3 fold

B4: 512 (protein)
chain: MAQGKVALEEHFAIPETLQDAAGFVPGDYWKELQHRLLDIQDTRLKEMDKHGIGTMVLSLAAPAVQAIPDRRKAIEIARRANDFLAEEVAKRPDRFLAFAALPLQDVDAATEELQRCVADLGFVGAMVNGFSQEGDGQTPLYYDLPQYRPFWGEVEKLDVPFYLHPRNPLPQDSRIYDGHPWLLGPTWAFAQETAVHALRLMASGLFDEHPRLNIILGHMGEGLPYMMYRIDHRIAWVKAPPDYPAKRRFMDYFLENFHITTSGNFRTQTLIDAILEIGADRILFSTDWPFENIDHAADWFNATSIADADRDKIGRTNARRLFKLDGR
modifications: Dicamba decarboxylase variant
Fold Activity [1]: 1.2 fold

B5: 510 (protein)
chain: MAQGKVALEEHFAIPETLQDAAGFVPGDYWKELQHRLLDIQDTRLKEMDRHEIGTMVLSLAAPAVQAIPDRRKAIEIARRANDFLAEEVAKRPDRFLAFAALPLQDVDAATEELQRCVNDLGFVGAMVNGFSQEGDGQTPLYYDLPQYRPFWGEVEKLDVPFYLHPRNPLPQDARIYDGHPWLLGPTWAFAQETAVHALRLMASGLFDEHPRLNIILGHMGEGLPYMMYRIDHRIAWVKAPPDYPAKRRFMDYFLENFHITTSGNFRTQTLIDAILEIGADRILFSTDWPFENIDHAADWFAATSIAEADRVKIGRTNARRLFKLDGS
modifications: Dicamba decarboxylase variant
Fold Activity [1]: 1.0 fold

B6: 515 (protein)
chain: MAQGKVALEEHFAIPETLQDAAGFVPGDYWKELQHRLLDIQDTRLKEMDKHEIGTMVLSLAAPAVQAIPDRRKAIEIARRANDFLAEEVAKRPDRFLAFAALPLQDVDAATEELQRCVNDLGFVGAMVNGFSQEGDGQTPLYYDLPQYRPFWGEVEKLDVPFYLHPRNPLPQDSRIYDGHPWLLGPTWAFAQETAVHALRLMASGLFDEHPRLNIILGHMGEGLPYMMYRIDHRIAWVKAPPDYPAKRRFMDYFLENFHITTSGNFRTQTLIDAILEIGADRILFSTDWPFENIDHAADWFNATSIAEADRVKIGRTNARRLFKLDGR
modifications: Dicamba decarboxylase variant
Fold Activity [1]: 1.0 fold

B7: 513 (protein)
chain: MAQGKVALEEHFAIPETLQDAAGFVPGDYWKELQHRLLDIQDTRLKEMDKHEIGTMVLSLAAPAVQAIPDRRQAIELARRANDFLAEEVAKRPDRFLAFAALPLQDVDAATEELQRCVNDLGFVGAMVNGFSQEGDGQTPLYYDLPQYRPFWGEVEKLDVPFYLHPRNPLPQDSRIYDGHPWLLGPTWAFAQETAVHALRLMASGLFDEHPRLNIILGHMGEGLPYMMYRIDHRIAWVKAPPDYPAKRRFMDYFLENFHITTSGNFRTQTLIDAILEIGADRILFSTDWPFENIDHAADWFNATSIAEADRVKIGRTNARRLFKLDGR
modifications: Dicamba decarboxylase variant
Fold Activity [1]: 1.2 fold

B8: 514 (protein)
chain: MAQGKVALEEHFAIPETLQDAAGFVPGDYWKELQHRLLDIQDERLKEMDKHEIGTMILSLAAPAVQAIPDRRKAIELARRANDFLAEEVAKRPDRFLAFAALPLQDVDAATEELQRCVNDLGFVGAMVNGFSQEGDGQTPLYYDLPQYRPFWGEVEKLDVPFYLHPRNPLPQDSRIYDGHPWLLGPTWAFAQETAVHALRLMASGLFDEHPRLNIILGHMGEGLPYMMYRIDHRIAWVKAPPDYPAKRRFMDYFLENFHITTSGNFRTQTLIDAILEIGADRILFSTDWPFENIDHAADWFNATSIAEADRVKIGRTNARRLFKLDGR
modifications: Dicamba decarboxylase variant
Fold Activity [1]: 1.1 fold

B9: 502 (protein)
chain: MAQGKVALEEHFAIPETLNDAADFVPSEYWKELQHRLLDIQDQRLRLMDKHEIETTILSLAAPAVQAIGDRVKAIEIARRANDFLAEEVAKRPDRFLAFAALPLQDVDAATEELQRCVNDLGFVGAMVNGFSQEGDGQTPLYYDLPQYRPFWKEVEKLDVPFYLHPRNPLPQDSRIYDGHPWLLGPTWAFAQETAVHALRLMASGLFDEHPRLNIILGHMGEGLPYMMYRIDHRIAWVKAPPDYPAKRRFMDYFLENFHITTSGNFRTQTLIDAILEIGADRILFSTDWPFENIDHAADWFNATSIAEADRVKIGRTNARRLFKLDGR
modifications: Dicamba decarboxylase variant
Fold Activity [2]: 1.0 fold

B10: 503 (protein)
chain: MAQGKVALEEHFAIPETLNDAADFVPSEYWKELQHRLLDIQDTRLKLMDKHEIGTMILSLAAPAVQAIPDRVKAIEIARRANDFLAEEVAKRPDRFLAFAALPLQDPDAATEELQRCVNDLGFVGAMVNGFSQEGDGQTPLYYDLPQYRPFWGEVEKLDVPFYLHPRNPLPQDSRIYDGHPWLLGPTWAFAQETAVHALRLMASGLFDEHPRLNIILGHMGEGLPYMMYRIDHRIAWVKAPPDYPAKRRFMDYFLENFHITTSGNFRTQTLIDAILEIGADRILFSTDWPFENIDHAADWFNATSIAEADRVKIGRTNARRLFKLDGR
modifications: Dicamba decarboxylase variant
Fold Activity [2]: 2.1 fold

B11: 507 (protein)
chain: MAQGKVALEEHFAIPETLQDAADFVPSEYWKELQHRLLDIQDTRLKLMDKHEIETMILSLAAPAVQAIPDRVKAIEIARRANDFLAEEVAKRPGRFLAFAALPLQDVDAATEELQRCVNDLGFVGAMVNGFSQEGDGQTPLYYDLPQYRPFWGEVEKLDVPFYLHPRNPLPQDSRIYDGHPWLLGPTWAFAQETAVHALRLMASGLFDEHPRLNIILGHMGEGLPYMMYRIDHRIAWVKAPPDYPAKRRFMDYFLENFHITTSGNFRTQTLIDAILEIGADRILFSTDWPFENIDHAADWFNATSIAEADRVKIGRTNARRLFKLDGR
modifications: Dicamba decarboxylase variant
Fold Activity [2]: 1.8 fold

B12: 508 (protein)
chain: MAQGKVALEEHFAIPETLNDAAGFVPSEYWKELQHRLLDIQDTRLKLMDKHEIETMILSLAAPAVQAIPDRVKAIEIARRANDFLAEEVAKRPDRFLAFAALPLQDPDAATEELQRCVNDLGFVGALVNGFSQEGDGQTPLYYDLPQYRPFWGEVEKLDVPFYLHPRNPLPQDSRIYDGHPWLLGPTWAFAQETAVHALRLMASGLFDEHPRLNIILGHMGEGLPYMMYRIDHRIAWVKAPPDYPAKRRFMDYFLENFHITTSGNFRTQTLIDAILEIGADRILFSTDWPFENIDHAADWFNATSIAEADRVKIGRTNARRLFKLDGR
modifications: Dicamba decarboxylase variant
Fold Activity [2]: 1.0 fold

B13: 505 (protein)
chain: MAQGKVALEEHFAIPETLQDAADFVPSEYWKELQHRLLDIQDTRLKLMDKHEIETMILSLAAPAVQAIPDRRKAIEIARRANDFLAEEVAKRPDRFLAFAALPLQDVDAATEELQRCVNDLGFVGAMVNGFSQEGDGQTPLYYDLPQYRPFWGEVEKLDVPFYLHPRNPLPQDSRIYDGHPWLLGPTWAFAQETAVHALRLMASGLFDEHPRLNIILGHMGEGLPYMMYRIDHRIAWVKAPPDYPAKRRFMDYFLENFHITTSGNFRTQTLIDAILEIGADRILFSTDWPFENIDHAADWFNATSIAEADRVKIGRTNARRLFKLDGR
modifications: Dicamba decarboxylase variant
Fold Activity [2]: 2.0 fold

B14: 504 (protein)
chain: MAQGKVALEEHFAIPETLNDAADFVPSEYWKELQHRLLDIQDTRLKLMDKHEIGTMILSLAAPAVQAIPDRVKAIEIARRANDFLAEEVAKRPDRFLAFAALPLQDPDAATEELQRCVNDLGFVGAMVNGFSQEGDGQTPLYYDLPQYRPFWGEVEQLDVPFYLHPRNPLPQDSRIYDGHPWLLGPTWAFAQETAVHALRLMASGLFDEHPRLNIILGHMGEGLPYMMYRIDHRIAWVKAPPDYPAKRRFMDYFLENFHITTSGNFRTQTLIDAILEIGADRILFSTDWPFENIDHAADWFNATSIAEADRVKIGRTNARRLFKLDGR
modifications: Dicamba decarboxylase variant
Fold Activity [2]: 2.3 fold

B15: 506 (protein)
chain: MAQGKVALEEHFAIPETLNDAADFVPSEYLKELQHRLLDIQDTRLKLMDKHEIETMILSLAAPAVQAIPDRVKAIEIARRANDFLAEEVAKRPDRFLAFAALPLQDPDAATEELQRCVNDLGFVGAMVNGFSQEGDGQTPLYYDLPQYRPFWGEVEKLDVPFYLHPRNPLPQDSRIYDGHPWLLGPTWAFAQETAVHALRLMASGLFDEHPRLNIILGHMGEGLPYMMYRIDHRIAWVKAPPDYPAKRRFMDYFLENFHITTSGNFRTQTLIDAILEIGADRILFSTDWPFENIDHAADWFNATSIAEADRVKIGRTNARRLFKLDGR
modifications: Dicamba decarboxylase variant
Fold Activity [2]: 1.1 fold
